Results from US20170247475A1 (Boehringer Ingelheim, published 2017).

T1: recombinant human VEGF121 (human, UniProt P15692-9 27-147)
T1 construct: also called rhVEGF121; hVEGF121
T1 sequence (looked up): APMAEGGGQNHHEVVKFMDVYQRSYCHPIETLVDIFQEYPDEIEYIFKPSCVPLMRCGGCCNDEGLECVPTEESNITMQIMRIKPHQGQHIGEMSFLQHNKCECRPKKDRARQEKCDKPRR

T2: recombinant mouse VEGF164 (mouse, UniProt Q00731-2 27-190)
T2 construct: biotinylated in the mVEGFR2 AlphaScreen; also called rmVEGF164; mVEGF164
T2 sequence (looked up): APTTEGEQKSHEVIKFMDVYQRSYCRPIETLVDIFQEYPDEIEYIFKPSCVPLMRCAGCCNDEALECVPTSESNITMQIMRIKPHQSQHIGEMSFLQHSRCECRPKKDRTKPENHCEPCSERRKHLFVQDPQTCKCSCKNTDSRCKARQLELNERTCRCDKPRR


Experiments:
[1] = target: T3, recombinant human VEGF165 (human, UniProt P15692-4 27-191); assay: binding ELISA, coated rhVEGF165
T3 construct: also called hVEGF165; rhVEGF165

[2] = target: T1, recombinant human VEGF121; assay: binding ELISA, coated rhVEGF121
Experimental: Binding to recombinant human VEGF121 is assessed via a solid phase binding ELISA. Briefly, recombinant human VEGF121 (R&D Systems, Minneapolis, Minn., USA) is coated overnight at 4° C. at 1 μg/mL in a 96-well MaxiSorp plate (Nunc, Wiesbaden, Germany). Wells are blocked with a casein solution (1% in PBS).

[3] = target: T2, recombinant mouse VEGF164; assay: binding ELISA, coated rmVEGF164
Experimental: Cross-reactivity to mouse VEGF164 is determined using a binding ELISA. […] Wells are blocked with a casein solution (1% in PBS). […] A mouse VEGF164 reactive mAb is included as positive control.

[4] = target: T3, recombinant human VEGF165; assay: kd1; SPR Biacore T100, hVEGF165 on chip, Two State Reaction model
Experimental: Samples are injected for 2 min and allowed to dissociate up to 20 min at a flow rate of 45 μI/min. In between sample injections, the chip surface is regenerated with 100 mM HCl. HBS-EP+(Hepes buffer pH7.4+EDTA) is used as running buffer. Binding curves are fitted using a Two State Reaction model by Biacore T100 Evaluation Software v2.0.1.
^{(a)}Heterogeneous binding curve resulting in no 1:1 fit, curves are fitted using a Two State Reaction model by Biacore T100 Evaluation Software v2.0.1

[5] = target: T3, recombinant human VEGF165; assay: competition AlphaScreen, blocking of hVEGF165 binding to hVEGFR1-Fc
[6] = target: T3, recombinant human VEGF165; assay: AlphaScreen competition, 0.05 nM hVEGF165 and 0.05 nM hVEGFR2-Fc; blocked: hVEGFR2-Fc
[7] = target: T3, recombinant human VEGF165; assay: as above; remark: listed apart in the source
[8] = target: T3, recombinant human VEGF165; assay: as above; remark: listed apart in the source
[9] = target: T3, recombinant human VEGF165; assay: as above; remark: listed apart in the source
[10] = target: T3, recombinant human VEGF165; assay: AlphaScreen competition, 0.05 nM hVEGF165 and 0.05 nM hVEGFR1-Fc; blocked: hVEGFR1-Fc
[11] = target: T3, recombinant human VEGF165; assay: as above; remark: listed apart in the source

| Binder | EC50 [1] | EC50 [2] | binding result [3] | koff [4] | IC50 (read off the curve) [5] | IC50 (read off the curve) [6] | IC50 (read off the curve) [7] | IC50 (read off the curve) [8] | IC50 (read off the curve) [9] | IC50 (read off the curve) [10] | IC50 (read off the curve) [11] |
| --- | --- | --- | --- | --- | --- | --- | --- | --- | --- | --- | --- |
| VEGFBII23B04 (VHH, also called VEGFBII23B4; VEGFBII23B04 (wt)) VHH: EVQLVESGGGLVQTGDSLRLSCEVSGRTFSSYSMGWFRQAQGKEREFVVAISKGGYKYDSVSLEGRFTISKDNAKNTVYLQINSLKPEDTAVYYCASSRAYGSSRLRLADTYEYWGQGTQVTVSS | 0.297 nM | 0.51 nM | no binding (tested: 500 nM-32 pM) | 0.0086 s⁻¹ |  |  |  |  |  |  |  |
| VEGFBII038 (VHH, also called VEGFBII0038; VEGFBII00038) VHH: DVQLVESGGGLVQPGGSLRLSCAASGRTFSSYSMGWFRQAPGKEREFVVAISKGGYKYDAVSLEGRFTISRDNAKNTVYLQINSLRPEDTAVYYCASSRAYGSSRLRLADTYEYWGQGTLVTVSS |  |  |  |  | ~0.4 nM | ~0.4 nM | ~0.4 nM | ~0.5 nM | ~0.5 nM | ~0.8 nM | ~0.8 nM |
